# Data from patent publication US20180086829A1 (published 2018).
# B1: anti-LILRB4 rabbit monoclonal antibody #78 (antibody, V domains shown)
# VH: QSLQESGGRLVTPGTPLTLTCTVSGIDLSVYLMSWVRQSPGKGLEYIGFINSAGITAYATWAKGRFIISKTSTTVDLKVTSPTTEDTATYFCARNWIRLDLWGQGTLVTISS
# VL: ELVLTQTPASVSAAVGGTVTISCQSSESIYKNYLSWFQQKPGQPPKLLIYETSKLASGVPSRFSGSGSGTQFTLTISDVQCDDAATYYCLGGYTNGRDTIFGGGTELEIK
# notes: Rabbit monoclonal antibody; also called mAb 78; bin 1
# B2: anti-LILRB4 rabbit monoclonal antibody #216-1 (antibody, V domains shown)
# VH: EQSVEESGGGLVKPGASLTLTCIASGFSFSSSYVMCWVRQAPGKGLELIACIHAGGSGSTYYASWAKGRFTISKTSSTTVTLQMTSLTAADTATYFCARYNYHFYYIGDYSDLWGPGTLVTVSS
# VL: ELVMTQTPSSVSAAVGGTVTIKCQASEDIDSYLAWYQQKPGQRPKVLIYRASTLASGVPSRFKGSGSGTEFTLTISGLECDDAATYYCQQGWSNDVGSNAFGGGTKVEIK
# notes: Rabbit monoclonal antibody
# B3: anti-LILRB4 rabbit monoclonal antibody #214 (antibody, V domains shown)
# VH: QSVKESGGRLVTPGTPLTLTCTVSGFSLSSYWMHWVRQAPGKGLEWVGVVSVSGNFYYATWAKGRFTISKTSTTVDLKITSPTIEDTAFYFCTMSFALWGQGTLVTISS
# VL: ELVMTQTASPVSAAVGGTVTINCQSSQSVYSNNNLGWLKQKPGQPPKELIYYASTLASGVPSRFKGSGSGTQFTLTISDLECDDAATYYCVGGYGCSSADCSVFGGGTEVEIK
# notes: Rabbit monoclonal antibody
# Key:
# human LILRB4 [1] = molecular target: T1, human LILRB4 (human, UniProt Q8NHJ6 22-259, limits assumed); assay: ELISA
# T1 construct: also called leukocyte immunoglobulin-like receptor subfamily B member 4
# human LILRB4 [2] = molecular target: T1, human LILRB4; assay: ELISA; upper end of the range, tied to #216-1 by Table 1
# human LILRB4 [3] = molecular target: T1, human LILRB4; assay: ELISA; lower end of the range, tied to #214 by Table 1
binder,measurement,setting,value
B1,EC50,human LILRB4 [1],0.0808 nM
B2,EC50,human LILRB4 [2],0.3 nM
B3,EC50,human LILRB4 [3],0.05 nM
